Data from patent US6432692 (WISCONSIN ALUMNI RESEARCH FOUNDATION, dated 2002).

T1: full length aryl hydrocarbon receptor (AHR) translated in reticulocyte lysate (pSportAHR) (UniProt P30561 1-805, limits assumed)
T1 construct: also called Ah receptor; radiolabeled AHR
T1 sequence (looked up): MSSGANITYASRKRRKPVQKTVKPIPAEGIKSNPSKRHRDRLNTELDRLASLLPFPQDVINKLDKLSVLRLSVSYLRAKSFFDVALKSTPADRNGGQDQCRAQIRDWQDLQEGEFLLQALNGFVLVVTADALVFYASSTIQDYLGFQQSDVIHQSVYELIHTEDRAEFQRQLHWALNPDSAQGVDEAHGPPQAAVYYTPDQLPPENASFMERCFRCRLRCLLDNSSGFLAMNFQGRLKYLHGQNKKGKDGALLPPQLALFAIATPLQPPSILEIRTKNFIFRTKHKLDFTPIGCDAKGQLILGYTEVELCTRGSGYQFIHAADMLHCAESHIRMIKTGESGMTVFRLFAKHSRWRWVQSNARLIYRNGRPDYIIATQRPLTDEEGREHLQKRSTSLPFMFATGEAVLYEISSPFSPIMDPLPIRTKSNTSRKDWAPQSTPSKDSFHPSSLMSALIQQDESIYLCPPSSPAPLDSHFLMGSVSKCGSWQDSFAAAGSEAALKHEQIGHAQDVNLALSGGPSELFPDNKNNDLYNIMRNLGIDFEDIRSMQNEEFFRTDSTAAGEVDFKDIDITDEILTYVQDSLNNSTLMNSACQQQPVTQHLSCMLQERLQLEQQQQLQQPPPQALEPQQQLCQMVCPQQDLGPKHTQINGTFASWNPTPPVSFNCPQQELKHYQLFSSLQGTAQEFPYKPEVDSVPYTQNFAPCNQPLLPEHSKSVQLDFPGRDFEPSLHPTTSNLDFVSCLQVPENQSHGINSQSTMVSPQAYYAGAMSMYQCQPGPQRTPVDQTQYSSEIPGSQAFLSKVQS


Legend:
Hsp90 = molecular target: T2, Hsp90; assay: co-immunoprecipitation of 35S labeled Hsp90 with T7-agarose, bands quantified with a phosphoimager
T2 construct: also called radiolabeled Hsp90; 35S labeled Hsp90
Protocol: (§1) The bacterial expression of FKBP52 and ARA9 was confirmed by SDS-PAGE followed by both Coomassie stain and western blot analysis with an anti-T7 peptide antibody (Novagen). Immunoprecipitations of complexes with either AHR- or Hsp90 were performed in MENG buffer as above, using anti-T7 agarose (Novagen). The complexes were then precipitated and analyzed by SDS-PAGE and autoradiography.
(§2) Figure 3A: FIG. 3A (Top). AHR was translated in reticulocyte lysates in the presence of ^35S-methionine. Labeled proteins were then incubated in the presence of T7 tagged ARA9, T7 tagged FKBP52 or untransformed BL21 extract and complexes were separated and visualized as above. "Input" lanes represent 25% of total protein (AHR or Hsp90) used in experiments. Bottom: The bands radioactivity present in the AHR or Hsp90 bands was quantified using a phosphoimager to make comparisons of relative coimmunoprecipitation. The bars represent the means from three independent experiments. The error bars indicate the standard error of the mean. Figure 3B: FIG. 3B. Hsp90 was used in a similar experiment described in FIG. 3A.
(§3) Specificity of ARA9 for AHR: The structural similarity between ARA9 and FKBP52 led us to compare the relative capacity of these two factors to bind AHR. […] The AHR-ARA9 or AHR-FKBP52 associations were determined by coimmunoprecipitation with T7-agarose. […]

[1] = molecular target: T1, full length aryl hydrocarbon receptor …; assay: co-immunoprecipitation of 35S-labeled AHR with T7-agarose, bands quantified with a phosphoimager
Protocol: as §1, §2, §3

capacity to interact with Hsp90 relative to ARA9 (Hsp90) [fold]	efficiency at precipitating AHR relative to FKBP52 [1] [times]	Binder
4		T7 tagged FKBP52 expressed in bacteria (pET17b-FKBP52, PL947) (other) MASMTGGQQMGMTAEEMKAAESGAQSAPLPLEGVDISPKQDEGVLKVIKREGTGTETPMIGDRVFVHYTGWLLDGTKFDSSLDRKDKFSFDLGKGEVIKAWDIAVATMKVGELCRITCKPEYAYGSAGSPPKIPPNATLVFEVELFEFKGEDLTDDEDGGIIRRIRTRGEGYARPNDGAIVEVALEGYYKDRLFDQRELRFEVGEGESLDLPCGLEKAIQRMEKGEHSILYLKPSYAFGNAGKEKFQIPPYAELKYEVHLKSFEKAKESWEMSSEEKLEQSAIVKERGTVYFKEGKYKQALLQYKKIVSWLEYESSFSSEEVQKAQALRLASHLNLAMCHLKLQAFSAAVESCNKALELDSNNEKGLFRRGEAHLAVNDFDLARADFQKVLQLYPSNKAAKAQLAVCQQRIRKQIAREKKLYANMFERLAEEENKAKAEVAAGDHPMDTEMKDERNDVAGSQSQVETEA
	~4	T7 tagged full length ARA9 expressed in bacteria (pET17b-ARA9, PL799) (other, Expressed in BL21(DE3); also called T7-tagged ARA9; FL) MASMTGGQQMGMADIIARLREDGIQKRVIQEGRGELPDFQDGTKATFHYRTLHSDDEGTVLDDSRARGKPMELIIGKKFKLPVWETIVCTMREGEIAQFLCDIKHVVLYPLVAKSLRNIAVGKDPLEGQRHCCGVAQMREHSSLGHADLDALQQNPQPLIFHMEMLKVESPGTYQQDPWAMTDEEKAKAVPLIHQEGNRLYREGHVKEAAAKYYDAIACLKNLQMKEQPGSPEWIQLDQQITPLLLNYCQCKLVVEEYYEVLDHCSSILNKYDDNVKAYFKRGKAHAAVWNAQEAQADFAKVLELDPALAPVVSRELRALEARIRQKDEEDKARFRGIFSH
